assay: soluble on expression in E. coli; label from the status in PepcDB or PDB records

Sequence	soluble on expression in E. coli
MLIKRLAFAIMTLVIMTSAGCGFKLQRSYQIPEQLNQLSLSSSDEYSELTRLVRERLRLNNVKIVDAANDVPVLRLITDSLERSTLSLYPTGNVAEYELIYFVEFAVALPGKEAQPFKIEIRRDYLDDPRTALAKSREMELLVKEMRIQAADRILQSMASTEVNLEHHHHHH	soluble
MLIVGINGSPKKEGNTKYLINTVLEEAKSQGVETMVLEVGELLNSVKNPFCVVCSNPCSSICYKGTKLEEAYEILKKADAIVMGSPVYFGSVSAQLKAFFDKTRKLRSEKALYNKFACGVTVGGARFGGQETTMKALHDIMLVHGMTIVGDGYVGDDCGHHGVCAQQPADKDEFAIKRAKILGRRLVDVCKKAGALEHHHHHH	soluble
MLIVLPPSETKAVGGKNPAIDFDSLHFPTLNPIRKEIAHDLARLDISQAQEILKLSQKLLPEAQRNIELFQSPTMPAVLRYTGVLYDALDATSLPSSTWEHLAIGSALFGVVMANDNIPHYRLSGTTKLPCADASVPTLKRRWGNAISTALSDTNEVILDLRSGTYQQLGKVKHAITVRVESEDSDGKRSVISHFNKHYKGQLARALLLHDVTPDPDHAIEDLIGMTQECGFAVEHSKPHELTVVITQ	not soluble
MLKKIERAQQLLKKEAAVFRCPTCHEPMHLEGVGLICQQRHQFDLSKKGTLYFLNHGVQTEYNKKMFTSRGKMIQSGMYAPVLNKIMHYLPQNKTVVDVGCGEGSFLAELSQAGLSGLKIGFDLSKEGIYLASNQPIDAFWCVADLTNLPFANEGLDTILNIFSPSHYQEFRRVLKADGTVIKIIPEENYLKELRAAFYPNDEKKQSYSNQKVVQRFAEELAVEVDERITYCFDIPEERRLDLLEMSPLEWQVSQEVKAELQQRPLEKITIDVRLLVGRKR	not soluble
MLKREMNIADYDAELWQAMEQEKVRQEEHIELIASENYTSPRVMQAQGSQLTNKYAEGYPGKRYYGGCEYVDVVEQLAIDRAKELFGADYANVQPHSGSQANFAVYTALLQPGDTVLGMNLAQGGHLTHGSPVNFSGKLYNIVPYGIDESGKIDYDEMAKLAKEHKPKMIIGGFSAYSGVVDWAKMREIADSIGAYLFVDMAHVAGLIAAGVYPNPVPHAHVVTTTTHKTLAGPRGGLILAKGGDEELYKKLNSAVFPSAQGGPLMHVIAGKAVALKEAMEPEFKVYQQQVAKNAKAMVEVFLNRGYKVVSGGTENHLFLLDLVDKNLTGKEADAALGRANITVNKNSVPNDPKSPFVTSGIRIGSPAVTRRGFKEAEVKELAGWMCDVLDNINDEATIERVKAKVLDICARFPVYA	not soluble
MLKSIELNSHIRNRLAEYLKGRGMDFQTAMQEEKGNKEIAAIVHSGLPTLVRKLYSEQKMQKFFWEKRDLIADYISRRMQG	not soluble
MLKTISPLISPELLKVLAEMGHGDEIIFSDAHFPAHSMGPQVIRADGLLVSDLLQAIIPLFELDSYAPPLVMMAAVEGDTLDPEVERRYRNALSLQAPCPDIIRINRFAFYERAQKAFAIVITGERAKYGNILLKKGVTP	soluble
MLLAFKAKIALAALAGFVTPLAVTPLVIDHGDAALDGQQAMVEIAPGAMDYRLPGEFTRDGRQIEAPRTKLQFDRPLSIMLHQVSAADYQRCVDDGACHPMPAATAVRADRPAVQVSWQDATTYADWLSRKTGAHYRLPTDAEWAFAAGSKFKDDGLALDSDDPSVRWIARYERESDRDNLSAALRSFGGFGANERGLLDLSGNVWEWTTTCFDRSAIDAAGRPQAQTANCGVRVAEGLHRAYVSDFIRDAKAGGCSAGLPPIHLGFRLVREPAAPLARLRGQLDRVVTAAGILEHHHHHH	not soluble
MLLDKIQNLIIQSDISIFQSMKKMDEEKVKLLFVFRGDCFVGILTIGDIQRAIIKQNDTSMQINNILDQNKVFAYKGESLEIIKNKMIHLRAECMPILDSKGELVDVLFWKDLFIDEVRVDDRKIDLPVVIMAGGKGTRLKPLTNVIPKPLIPIGDKTILEAILDQFESIGCSKFYMSVNYKYDILKFYLAQLDHKYDIRFFKEDKPLGTIGSVSLLKDKISTPFFVSNCDIIIDQDYRDVYDYHINNSNDLTIVTAVKRTRIPYGVIETIENGLMTELIEKPEFTYMINSGVYILQPELINEIPENELFHITHLMEKVKSRGGKIGCFPVSEKSWTDIGEWNEYLKLLGILEHHHHHH	not soluble
MLLDVQRGQLSFTKYSIITVIWLSLSRILNRGQLSLECFEFWQPTSQLLVLDVCLLDAFALEHHHHHH	not soluble
MLLPEPTTLRHVLIDGTIPQVATDEALIKDFGHPYEYAFNRTPQGYQVRWNTPKGVYILDAVVAAHIDPDDQWYWHQQFAFAIPELAEGPHHSSEELLTAARTLNGNGPAYLVPTEDGHTDVIVATPSFPQLPLAHALTLGLGQARNNNLTDDEIRRAIIAFAAQNDYSVAEDGLILCVRSDNGEQAHVDIARLKVRDLQSTTPQLRLTDVLADATFVAAEHQLLLNGRFPDARATTNDDCSVVTLTTPTGQTLRARALLIATLRGETLQWSWADPAVCDLPGAKAALGVKNFAIDNGLGMLLGQVDAATALSQRLYDAAKPVSRFWTDVRVPLSDGSTAIMLVDASELRLPPPSHAAVFATLHETVPHGRDIRRALSYYGAFRRITIDDVDYRRVRVHAPSAPIQVSMDACGRVCSIV	not soluble
MLLSNEEFLKKLTDLLQTHQSKGTGSVYLSQKCNPVDEGEGSSASVLIRAKSGAAEKISTVVELDYFTDFFQSYAEVCKGQIVGLKKRDRK	soluble
MLMRPLDLTEKRGKKVTIYFEGKELEAYEGEKLPVALLANEIYWLTTSNEGRKRGAFTFGPVPMTVNGVKGLEARRIKVKDGMKIERQGYYDFHEEPVVEPGEIERVVVDVAIIGGGPAGIGAALELQQYLTVALIEERGWLGGDMWLKGIKQEGFNKDSRKVVEELVGKLNENTKIYLETSALGVFDKGEYFLVPVVRGDKLIEILAKRVVLATGAIDSTMLFENNDMPGVFRRDFALEVMNVWEVAPGRKVAVTGSKADEVIQELERWGIDYVHIPNVKRVEGNEKVERVIDMNNHEYKVDALIFADGRRPDINPITQAGGKLRFRRGYYSPVLDEYHRIKDGIYVAGSAVSIKPHYANYLEGKLVGAYILKEFGYDAQPCIYEEKLREYEPESLSIPRIPLDKFNLEDVQICGCDVSLKKVDEVIRKGITDLQIIKRLTHLAMGFCQGRYCLFNGAVVVSQRTGKKLSEIDLPVARSPIKNVKMGILARR	soluble
MLNGSCLCGRVAYTVDGPLADVVNCHCAMCRKAHGAAFRTRATVRAEHFAFVRGESDITWYSSSPGNYRGFCSACGTPLLSRFDQTPDVYALPLGALDDDPGVKAACHVYVAHKAPWHDITDDLPRHPEGRPG	not soluble
MLPHSGRMVLIDRITRYGDDFVEAGAQVKPDHILLAGGMLPYTAFIELMAQAVGAYAGIQARKNARPVRLGFLPGTRKLEIFAQSVPVGTHLPATAHMSIQDAGVWACPTANCVGRMRRKLRPEHSFQTAFWHAPHSTCTAPNTMTEQLTPSEQAHIRRTTMTETVLITGSNRGIGKAAALEHHHHHH	not soluble
MLPKANRIPYAMTVHGDTRIDNYYWLRDDTRSQPEVLDYLHQENEYGRKVMTSQQALQDRILKEIIDRIPPREVSAPYVKNGYRYRYIYEPGCEYAIYQRQSALSEEWDVWETLLDANQRAAHSEFYTLGGLAITPDNTIMALAEDYLSRRQYGLRFRNLESGNWYPELLDNVAPEFVWANDSLTLYYVRKHKKTLLPYQVWRHTIGTPSSQDELVYEEKDDTFYVSLHKTTSQHYVVIHLASATTSEVLLLDAELADAEPFSFLPRRKDHEYSLDHYQHKFYLRSNRNGKNFGLYRTRVRNENAWEELIPPREHIMLEGFTLFTDWLVVEERQRGLTSLRQINRKTREVIGIAFDDPAYVTWLAYNPEPETSRLRYGYSSMTTPDTLFELDMDTGERRVLKQTEVPGFDSGCYQSEHLWITARDGVEVPVSLVYHQKYFRKGQNPLLVYGYGSYGSSIDADFSSSRLSLLDRGFVYAIVHVRGGGELGQQWYEDGKFLKKRNTFNDYLDACDALLKLGYGSPSLCYGMGGSAGGMLMGVAINERPELFHGVIAQVPFVDVLTTMLDESIPLTTGEFEEWGNPQDIEYYDYMKSYSPYDNVKAQDYPHLLVTTGLHDSQVQYWEPAKWVAKLRELKTDQRLLLLCTDMDSGHGGKSGRFKSYEGVALEFAFLIGLAQGTLHSA	not soluble
MLPSAPAPLAHFLLFLHLIHSARPEDGVPIETIHAPMFEDVFDVRIHEGADKGSRLTMSQDLQKSTEPLGHCFGQLETDVDWIEWKSSRSAFYTTAQMPISATKNSNNLVGSLHLLCAGNQMHTFPFRVHITHRNHHPPTFSKNSFKFHVPTTLPIGSVITTLEVKDQDPVIYNSERRLAFTKDEPLVDILQDGTLKLKSDLSILTPYTPQRMQILAIDYGSPQLFTIANITLIPVTVSMVRELHVNVATEEYQIFEWEHPQYGTVDKYRLGIRRDDQVVYEEELEAAKTLALTKIMLSNSMNVSFQVTAIDENGETSSEWTQIGPIDRDVICKGECSRGGTPLCYVGAFNRVEQFIDARGAHCLCYPGFMGVSCETIGSMWTLTTLDVFVDLIRAMANKLNSIECSQIAI	not soluble
MLPSAQVARLKPDPFPPSLSPIPHGAVTFAALAPCHNLPIFSSRQMLRDSLTYSHTSPTMSPQIANRFEASLDAQDIARISLFTLESGVILRDVPVAYKSWGRMNVSRDNCVIVCHTLTSSAHVTSWWPTLFGQGRAFDTSRYFIICLNYLGSPFGSAGPCSPDPDAEGQRPYGAKFPRTTIRDDVRIHRQVLDRLGVRQIAAVVGASMGGMHTLEWAFFGPEYVRKIVPIATSCRQSGWCAAWFETQRQCIYDDPKYLDGEYDVDDQPVRGLETARKIANLTYKSKPAMDERFHMAPGVQAGRNISSQDAKKEINGTDSGNSHRAGQPIEAVSSYLRYQAQKFAASFDANCYIAMTLKFDTHDISRGRAGSIPEALAMITQPALIICARSDGLYSFDEHVEMGRSIPNSRLCVVDTNEGHDFFVMEADKVNDAVRGFLDQSLM	soluble
MLQCGAKNVNPLERFVSSLPVAAVLPELLAALDGASQVLLSAPTGAGKSTWLPLQLLAHPGINGKIILLEPRRLAARNVAQRLAELLNEKPGDTVGYRMRAQNCVGPNTRLEVITEGVLTRMIQRDPELSGVGLVILDEFHERSLQADLALALLLDVQQGLRDDLKLLIMSA	not soluble
MLQGKAFLITGAGGALSRALIPAFHQAGARLFLSDPRPERMAERAQAVGAKTFVADLTRLEEALALARFVEEEAPLYGVVHTVGGFAAGRFLDTDPGLYDWMLDLNLRTTFNLLKAVLPYMAKRGEGFFAAFAAGPAWTGAGPGRALYTAAKTALASLLRSLQGEVEGVRFLVVYPMGTLDTEANRKAMPEADFSRWIAPELVAKVVVEAAGAKGGRLLELPIYPPL	soluble
MLQYRIIVDGRVQGVGFRYFVQMEADKRKLAGWVKNRDDGRVEILAEGPENALQSFVEAVKNGSPFSKVTDISVTESRSLEGHHRFSIVYS	soluble
MLRFYAMKQITEPGTYEIRGEVAEGDFSWDATNFAGFFYDVNDDVSTESLTVTGLNGGNVIPEGGLVYETTIQMVDYEYSKPSVGWDQFPVLGFFAEEYIPINADKADKLAKLVLDSDDKYTIRTGEQLDLGEGYAIEAKQVDVDGEKVWLEFTKDGEFVDDEIISVVSGSDNTWEVELDDIQDEDDVVVLRVHVNQVFQGAVDSIAQIEGIWLIDYANAMKIESDDEFGDLDNVKINGATLTITNEDTFTLTRDDEVEIGQGMFFKVADTAASDLRYYPFVEKTIDGEVVLEHHHHHH	soluble

From the DeepSol protein solubility set
